Data published in patent publication US20250332297A1, “DLL3-SPECIFIC BINDING CONSTRUCTS AND THEIR USE IN RADIOTHERAPY” (MOLECULAR PARTNERS AG, priority 2024, published 2025).

T1: Cyno DLL3-ECD (extracellular domain of cynomolgus macaque DLL3, residues 27 to 466, Avi-tag, 3C site, Fc knob … (cynomolgus macaque, UniProt A0A2K5WSR1 27-464, biotinylated at the Avi-tag (Example 11)))
T1 construct: range 27-466; also called cyno ECD; cynomolgus monkey DLL3; not shown: Avi-tag, 3C protease recognition site and Fc knob into hole
T1 sequence: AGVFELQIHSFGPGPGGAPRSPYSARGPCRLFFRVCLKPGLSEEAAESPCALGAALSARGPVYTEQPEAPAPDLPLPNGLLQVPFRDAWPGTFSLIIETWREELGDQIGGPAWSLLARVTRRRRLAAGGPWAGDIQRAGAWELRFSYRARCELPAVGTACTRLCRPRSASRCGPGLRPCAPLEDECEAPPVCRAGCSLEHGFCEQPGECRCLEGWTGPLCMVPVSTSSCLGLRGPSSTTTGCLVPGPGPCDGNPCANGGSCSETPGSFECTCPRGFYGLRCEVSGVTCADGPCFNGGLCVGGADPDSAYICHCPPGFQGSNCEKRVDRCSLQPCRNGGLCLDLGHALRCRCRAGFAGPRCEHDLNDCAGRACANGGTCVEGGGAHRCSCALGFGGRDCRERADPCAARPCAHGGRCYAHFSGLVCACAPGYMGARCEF

T2: Human DLL3-ECD (recombinant extracellular domain of human DLL3, Examples 11, 17 and 19) (human, UniProt Q9NYJ7 27-466, biotinylated at the Avi-tag where immobilised (Examples 11 and 19))
T2 construct: also called hDLL3-ECD; human ECD; not shown: Avi-tag and Fc knob into hole (order depends on the format)
T2 sequence: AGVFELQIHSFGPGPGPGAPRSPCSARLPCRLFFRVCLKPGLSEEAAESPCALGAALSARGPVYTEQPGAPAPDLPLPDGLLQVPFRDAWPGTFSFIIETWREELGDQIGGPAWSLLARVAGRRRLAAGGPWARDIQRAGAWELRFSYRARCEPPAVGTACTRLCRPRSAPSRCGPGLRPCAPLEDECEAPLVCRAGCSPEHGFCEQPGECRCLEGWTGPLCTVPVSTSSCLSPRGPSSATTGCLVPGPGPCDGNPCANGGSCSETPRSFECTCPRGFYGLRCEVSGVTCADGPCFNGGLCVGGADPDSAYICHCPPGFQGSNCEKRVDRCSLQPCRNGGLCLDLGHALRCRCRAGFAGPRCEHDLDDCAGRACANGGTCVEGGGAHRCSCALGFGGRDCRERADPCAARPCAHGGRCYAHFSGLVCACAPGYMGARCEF

T3: mouse DLL3-ECD (recombinant extracellular domain of mouse DLL3) (mouse, UniProt O88516 33-490)
T3 construct: extracellular domain
T3 sequence (looked up): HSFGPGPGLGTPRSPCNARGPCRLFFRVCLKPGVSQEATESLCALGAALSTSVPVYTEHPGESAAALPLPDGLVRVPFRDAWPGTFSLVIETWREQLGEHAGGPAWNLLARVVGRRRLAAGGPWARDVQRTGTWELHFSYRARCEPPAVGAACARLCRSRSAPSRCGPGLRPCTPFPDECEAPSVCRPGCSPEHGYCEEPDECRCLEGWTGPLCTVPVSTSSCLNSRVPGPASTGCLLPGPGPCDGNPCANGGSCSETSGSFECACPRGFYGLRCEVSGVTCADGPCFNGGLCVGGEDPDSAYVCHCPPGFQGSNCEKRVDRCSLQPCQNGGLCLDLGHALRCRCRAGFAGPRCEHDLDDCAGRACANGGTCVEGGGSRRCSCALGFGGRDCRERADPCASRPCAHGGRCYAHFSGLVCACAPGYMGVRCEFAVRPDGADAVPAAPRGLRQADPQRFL

T4: Human DLL3-ECD (Homo sapiens, UniProt Q9NYJ7)
T4 construct: the extracellular domain of DLL3 (DLL3-ECD) from human, cynomolgus monkey, mouse and pig
T4 sequence (Q9NYJ7 27-492 limits assumed): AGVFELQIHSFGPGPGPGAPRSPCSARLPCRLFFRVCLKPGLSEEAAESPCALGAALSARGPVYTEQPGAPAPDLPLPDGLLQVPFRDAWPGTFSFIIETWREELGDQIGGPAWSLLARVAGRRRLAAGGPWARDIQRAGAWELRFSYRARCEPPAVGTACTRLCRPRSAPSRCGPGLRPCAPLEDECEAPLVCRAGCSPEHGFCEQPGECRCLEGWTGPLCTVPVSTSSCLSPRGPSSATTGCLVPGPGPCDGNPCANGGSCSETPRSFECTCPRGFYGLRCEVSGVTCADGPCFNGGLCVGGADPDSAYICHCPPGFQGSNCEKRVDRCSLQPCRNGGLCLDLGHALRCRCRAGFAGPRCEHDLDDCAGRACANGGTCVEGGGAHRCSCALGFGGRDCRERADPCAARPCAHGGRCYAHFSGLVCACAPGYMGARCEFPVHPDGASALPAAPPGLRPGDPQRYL

T5: mouse DLL3-ECD (Mus musculus, UniProt O88516)
T5 construct: the extracellular domain of DLL3 (DLL3-ECD) from human, cynomolgus monkey, mouse and pig
T5 sequence (O88516 33-490 limits assumed): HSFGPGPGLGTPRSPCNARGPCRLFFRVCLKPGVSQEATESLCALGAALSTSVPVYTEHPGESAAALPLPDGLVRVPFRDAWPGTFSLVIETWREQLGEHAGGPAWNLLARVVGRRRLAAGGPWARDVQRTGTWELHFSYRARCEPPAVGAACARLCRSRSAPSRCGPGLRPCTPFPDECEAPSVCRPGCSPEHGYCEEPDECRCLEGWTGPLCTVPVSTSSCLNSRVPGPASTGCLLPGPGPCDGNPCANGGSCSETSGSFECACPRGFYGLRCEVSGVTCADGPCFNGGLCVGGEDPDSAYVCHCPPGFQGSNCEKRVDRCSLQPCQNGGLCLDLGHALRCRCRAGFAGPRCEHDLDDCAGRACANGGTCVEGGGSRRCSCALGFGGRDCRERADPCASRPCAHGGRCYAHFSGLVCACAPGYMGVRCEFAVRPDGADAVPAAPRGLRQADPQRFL


What was measured:
[1] = biological target: pig DLL3-ECD (recombinant extracellular domain of pig DLL3) (pig); experiment: SPR (ProteOn), biotinylated DARPin on chip, pig DLL3-ECD as analyte, 1:1 Langmuir fit
[2] = biological target: T1, Cyno DLL3-ECD (extracellular domain of …); experiment: SPR (ProteOn), biotinylated DARPin on chip, cyno DLL3-ECD as analyte, 1:1 Langmuir fit
Description: (§1) SPR multi-trace analyses were performed similarly as described in Examples 1 and 11. Here, the binding kinetics of immobilized DARPin proteins to the extracellular domain of DLL3 (DLL3-ECD) from human, cynomolgus monkey, mouse and pig were determined.
(§2) Streptavidin SAHC200M (Xantec) SPR chip was conditioned according to the manufacturer's protocol.

[3] = biological target: T2, Human DLL3-ECD (recombinant …); experiment: SPR (ProteOn), biotinylated DARPin on chip, human DLL3-ECD as analyte, 1:1 Langmuir fit
Description: as §1, §2

[4] = biological target: T3, mouse DLL3-ECD (recombinant …); experiment: SPR (ProteOn), biotinylated DARPin on chip, mouse DLL3-ECD as analyte, 1:1 Langmuir fit
Description: as §1, §2

[5] = biological target: T4, Human DLL3-ECD; experiment: SPR, immobilized DARPin, binding of human DLL3-ECD (Example 17); conditions: immobilized biotinylated DARPin, DLL3-ECD as analyte, 1:1 Langmuir, Table 19
Description: (§3) Kinetic binding parameters and binding affinities of two domain (2D) ankyrin repeat protein MAM279 and single domain (1 D) ankyrin repeat protein MAM093 to DLL3 from different species were determined. The DLL3-specific ankyrin repeat domain of MAM093 is identical to the DLL3-specific ankyrin repeat domain comprised in MAM279.
(§4) SPR multi-trace analyses were performed similarly as described in Examples 1 and 11. Here, the binding kinetics of immobilized DARPin proteins to the extracellular domain of DLL3 (DLL3-ECD) from human, cynomolgus monkey, mouse and pig were determined. Various concentrations of recombinant DLL3-ECD starting from 500 nM were applied to immobilized biotinylated 2D DARPin (MAM279; SEQ ID NO: 11) or 1 D DARPin (MAM093; SEQ ID NO: 1) (both with a Glycine-Serine (GS) at the N-terminal end) for on-rate and off-rate measurements.
(§5) Streptavidin SAHC200M (Xantec) SPR chip was conditioned according to the manufacturer's protocol. Biotinylated DARPins were immobilized to a coating density of 27 resonance units (RU) for 1D DARPin and 25 RU for 2D DARPin. All analytes (3-fold dilution ranging from 500-6.17 nM) were injected in succession for 240 s and dissociation was recorded for 10800 s using a constant flow of 100 μl/min.

[6] = biological target: Cyno DLL3-ECD; experiment: SPR, immobilized DARPin, binding of cyno DLL3-ECD (Example 17); set-up: species or system cynomolgus monkey; conditions: immobilized biotinylated DARPin, DLL3-ECD as analyte, 1:1 Langmuir, Table 19
Description: as §3, §4, §5

[7] = biological target: T5, mouse DLL3-ECD; experiment: SPR, immobilized DARPin, binding of mouse DLL3-ECD (Example 17); conditions: immobilized biotinylated DARPin, DLL3-ECD as analyte, 1:1 Langmuir, Table 20
Description: as §3, §4, §5

[8] = biological target: pig DLL3-ECD; experiment: SPR, immobilized DARPin, binding of pig DLL3-ECD (Example 17); conditions: immobilized biotinylated DARPin, DLL3-ECD as analyte, 1:1 Langmuir, Table 20
Description: as §3, §4, §5

Molecule | Kd [1] | koff [1] | kon [1] | Kd [2] | koff [2] | kon [2] | Kd [3] | koff [3] | kon [3] | Kd [4] | koff [4] | kon [4] | other results
Biotinylated 2D DARPin MAM279 (SEQ ID NO: 11) with a Glycine-Serine (GS) at the N-terminal end (designed binder, biotinylated (site and any tag used not stated), also called Biotinylated DARPin MAM279) GSDLGKKLLEAARAGQDDEVRELLKAGADVNAKDYFSHTPLHLAARNGHLKIVEVLLKAGADVNAKDFAGKTPLHLAADAGHLEIVEVLLKAGADVNAQDIFGKTPADIAADAGHEDIAEVLQKAAGSPTPTPTTPTPTPTTPTPTPTGSDLGKKLLAAAAQGQDDEVRELLKAGANVNAKDLFGYTPLHLAAWRGHLEIVEVLLKAGADVNAKDAAGETPLHLAAWFGHLEIVEVLLKAGADVNAQDLQGKTPADLAAKEGHEDIAEVLQKAA | 17.3 nM | 0.000319 s⁻¹ | 18400 M⁻¹ s⁻¹ | 8.88 nM | 0.000939 s⁻¹ | 106000 M⁻¹ s⁻¹ | 0.127 nM | 1.31e-05 s⁻¹ | 102000 M⁻¹ s⁻¹ | 83.9 nM | 0.00282 s⁻¹ | 33700 M⁻¹ s⁻¹ | –
Biotinylated 1D DARPin MAM093 (SEQ ID NO: 1) with a Glycine-Serine (GS) at the N-terminal end (designed binder, biotinylated (site and any tag used not stated), also called Biotinylated DARPin MAM093) GSDLGKKLLAAAAQGQDDEVRELLKAGANVNAKDLFGYTPLHLAAWRGHLEIVEVLLKAGADVNAKDAAGETPLHLAAWFGHLEIVEVLLKAGADVNAQDLQGKTPADLAAKEGHEDIAEVLQKAA | 14.3 nM | 0.00033 s⁻¹ | 23100 M⁻¹ s⁻¹ | 8.72 nM | 0.000825 s⁻¹ | 94700 M⁻¹ s⁻¹ | 0.13 nM | 1.18e-05 s⁻¹ | 90700 M⁻¹ s⁻¹ | 149 nM | 0.004 s⁻¹ | 26700 M⁻¹ s⁻¹ | –
MAM093: Ankyrin repeat domain specific for DLL3 (SEQ ID NO: 1); single domain (1D) DARPin (protein, Ankyrin repeat domain specific for DLL3 (MAM093), single domain (1D) DARPin) DLGKKLLAAAAQGQDDEVRELLKAGANVNAKDLFGYTPLHLAAWRGHLEIVEVLLKAGADVNAKDAAGETPLHLAAWFGHLEIVEVLLKAGADVNAQDLQGKTPADLAAKEGHEDIAEVLQKAA | – | – | – | – | – | – | – | – | – | – | – | – | Kd [5]: 0.13 nM; Koff Human DLL3-ECD [5]: 1.18e-05 s⁻¹; Kon Human DLL3-ECD [5]: 90700 M⁻¹ s⁻¹; Kd [6]: 8.72 nM; Koff Cyno DLL3-ECD [6]: 0.000825 s⁻¹; Kon Cyno DLL3-ECD [6]: 94700 M⁻¹ s⁻¹; Kd [7]: 149 nM; Koff mouse DLL3-ECD [7]: 0.004 s⁻¹; Kon mouse DLL3-ECD [7]: 26700 M⁻¹ s⁻¹; Kd [8]: 14.3 nM; Koff pig DLL3-ECD [8]: 0.00033 s⁻¹; Kon pig DLL3-ECD [8]: 23100 M⁻¹ s⁻¹
